Publication PMC3510516

Experiments:
Test in all cases: fluorescence anisotropy
[1] = system: GyrA CTD lacking GyrA-box (Bacillus subtilis); conditions: CTD: 50 mM Tris-HCl, 40 mM KCl (Results say NaCl), 10 mM MgCl2, 25 C (pH not stated), 100 nM DNA; gyrase: 50 mM Tris-HCl pH 7.5, 100 mM KCl, 10 mM MgCl2, 37 C …
[2] = system: GyrA CTD (Bacillus subtilis); conditions: CTD: 50 mM Tris-HCl, 40 mM KCl (Results say NaCl), 10 mM MgCl2, 25 C (pH not stated), 100 nM DNA; gyrase: 50 mM Tris-HCl pH 7.5, 100 mM KCl, 10 mM MgCl2, 37 C …
[3] = system: GyrA;GyrB (Bacillus subtilis;Bacillus subtilis); conditions: 4 uM GyrB, 10 mM Mg2+, 37 C; CTD: 50 mM Tris-HCl, 40 mM KCl (Results say NaCl), 10 mM MgCl2, 25 C (pH not stated), 100 nM DNA; gyrase: 50 mM Tris-HCl pH 7.5, 100 mM KCl, 10 mM MgCl2, 37 C …
[4] = system: GyrA lacking GyrA-box (GyrA_dA);GyrB (Bacillus subtilis;Bacillus subtilis); conditions: 4 uM GyrB, 10 mM Mg2+, 37 C; CTD: 50 mM Tris-HCl, 40 mM KCl (Results say NaCl), 10 mM MgCl2, 25 C (pH not stated), 100 nM DNA; gyrase: 50 mM Tris-HCl pH 7.5, 100 mM KCl, 10 mM MgCl2, 37 C …

| Substance | Kd [1] [µM] | Kd [2] [µM] | Kd [3] [µM] | Kd [4] [µM] |
| --- | --- | --- | --- | --- |
| 40-bp DNA wrapping substrate | 13.1 | 13.2 | – | – |
| 60-bp gate-DNA | – | – | 0.063 | 0.05 |
